Measured values: the DeepSol protein solubility set

assay: soluble on expression in E. coli; label from the status in PepcDB or PDB records

Row | Sequence | soluble on expression in E. coli
1 | MHMELRMVGRLSWITLFTLFLVGCSSAPDDSSPHSQVNDPLESFNRQMWTINYDYLDPYVVRPVSLFYVGYVPKPVRSGIANFLSNLDEPASMVNNLLMGNGTKAVDHFNRFWINTSFGLLGLIDIASEAGIKKYDDKAFSDAVGHYGVGNGPYLMVPGYGPYTVREVTDVVDGMYFPLAYLNIWAGVGKWALEGMETRAALVSQEALLQDSPDPYSLARDAYLQRQAFKAEIQVDDYDPEEEEYLDEYLNEGL | not soluble
2 | SEFVLKHTAFAHLREVGSFPCTLNPHEAESLALVGAMIDQVLELHPGAQRLHIGCDEVYYLGEGEASRRWLQQEQNSTGKLCLSHMRAVASGVKARRPSVTPLVWDDMLRDLPEDQLAASGVPQLVEPVLWDYTADLDVHGKVLLMQKYRRCGFPQLWAASAFKGATGPSQAVPPVEHHLRNHVQWLQVAGSGPTDSLQGIILTGWQRYDHYSVLCELLPAGVPSLAACLQLLLRGGFDEDVKAKVENLLGISSLEKTDPVREGAGSFPGSNILALVTQVSLHLRSSVDALLEGNRYVTGWFSPYHRQRKLIHPVMVQHIQPAALSLLAQWSTLVQELEAALQLAFYPDAVEEWLEENVHPSLQRLQALLQDLSEVSAPPLPPTSPGRDVAQDP | not soluble
3 | MKEAYAQELIDYYNQSTNDVLKRTASISENEKPRVLFLVYDQRKNSYWTPGGEFYQNNLITMAGGKTVSSDLPTGKAQINVEQAASWNPDVIITSAHTMEYPSTKVKEDVLTDEGWKEINAVKSGNVYAMPFDGESWDTLGSKYVLGLYWTAKTLHPDMYLEHHHHHH | soluble
4 | MNQNLLVTKRDGSTERINLDKIHRVLDWAAEGLHNVSISQVELRSHIQFYDGIKTSDIHETIIKAAADLISRDAPDYQYLAARLAIFHLRKKAYGQFEPPALYDHVVKMVEMGKYDNHLLEDYTEEEFKQMDTFIDHDRDMTFSYAAVKQLEGKYLVQNRVTGEIYESAQFLYILVAACLFSNYPRETRLQYVKRFYDAVSTFKISLPTPIMSGVRTPTRQFSSCVLIECGDSLDSINATSSAIVKYVSQRAGIGINAGRIRALGSPIRGGEAFHTGCIPFYKHFQTAVKSCSQGGVRGGAATLFYPMWHLEVESLLVLKNNRGVEGNRVRHMDYGVQINKLMYTRLLKGEDITLFSPSDVPGLYDAFFADQEEFERLYTKYEKDDSIRKQRVKAVELFSLMMQERASTGRIYIQNVDHCNTHSPFDPAIAPVRQSNLCLEIALPTKPLNDVNDENGEIALCTLSAFNLGAINNLDELEELAILAVRALDALLDYQDYPIPAAKRGAMGRRTLGIGVINFAYYLAKHGKRYSDGSANNLTHKTFEAIQYYLLKASNELAKEQGACPWFNETTYAKGILPIDTYKKDLDTIANEPLHYDWEALRESIKTHGLRNSTLSALMPSETSSQISNATNGIEPPRGYVSIKASKDGILRQVVPDYEHLHDAYELLWEMPGNDGYLQLVGIMQKFIDQSISANTNYDPSRFPSGKVPMQQLLKDLLTAYKFGVKTLYFQNTRDGAEDAQDDLVPSIQDDGCESGACKI | soluble
5 | MASPELAEKLKKRLDGTDQEPETNPHQAPPPAPVIPQKIVENPYIPSVDTSIDDLIFKALEKKEENNNNNNNNNSNSTTTTPLEIKTERNQQHEHTTIDPRSPPPKRSILELLEQERLENELQQQSAPVPKTPVMVITKGAFPRSASPRRQQFVRENEDGNELEKRLAAQRMKKYTEEMESLVQKQVDVLDQIMSSPPPPPTSPPQLPPTPPARITSVRSDESIEEEERRRKESEETASFEELEAEIMRISRSPVPPPVLSIPPPPPPNIPLPTIPQEVQSPPSPRPTSVPPPIPSPGPSEDVNMDELIESFSDSVIFNNSMSPPPPLPPLRESSLETLEVTPEDPVTESKVEASPTPLPKATESLNESSIKALEGLEVKALEAQEASDDRPSAPTPIRDSSLPPPPPPKPETPLAIRRAGPIPTPQLLEMIHQEDCSIRPSSPTSVSHGSRPQSPAVPKKPSVTVSPLGLLCDPNLSIEKPEEMKTEDTKPVETAPAPVDEAELNDALDRRNKINEATCLTKIFPSLARMFR | not soluble
6 | MKVLHMNAGAEEGGGKTHIISLLSQFSKEEVELMVFEEGAIAREARNLGIQVHVFTQSSRYDLSILSKIKAFINENQFDIVHTHGARANFYLSLLKKGIKAKWIMTVHSDPTLDFMKRGLKGWVFTKLNLRSFRKVDLFFAITENFKRNIIKLGVPEEKICTVYNGIEYDSNPAKPYDKSEFGIDEGIFTAIQVARLHPVKGHDILFEALQKIKIPNIKVLLLGDGPIEAELKEMVKQKGLEDKVMFLGFRIDSKELYASAHINLLTSYSESFPLVLLEAANQRLTSIATNVGDMKKLIVDDTYGWIVPIGDADSLANALENAYEKWLNGELEAMGNRLYTHASTHFSLKNLYEDTYNAYKTLLLK | not soluble
7 | SLVSSSKITRAREMVTKTEEKQLNQLEIQVDNGGGGTWEYLCLVRNLKVRRSEKVLKHGSSILNDQKKRSALGPDEWTLNEQVAIAAMDCQCLGVAQSCIKALQTKFPGSKRVGRLEALLLEAKGLWGEAEEAYASLLEDNPLDQAIHKRRVAISKALGKPSIAIELLNKYLELFMADHDAWRELAELYLSLQMYKQAAFCYEELILSQPTVPLYHLAYAEVLYTIGGVENIISARKYYAATVDLTGGKNTRALLGICLCASAIAQLSKGRNKEDKDATAAPELHSLAAAAVEKEYKQKAPDKLQLISSALRILKT | soluble
8 | MGSDKIHHHHHHMAVSIEGSPPCSYFMCLQLYSQYIRYNHFMRLNDEQQMNEKHSDHADKTKMPSSETLKQVCQPEERVLGRADDGSVMEFMLQTEHGNTYLCRFPPGFISHAAIQLCTEEIWYFIQGEGVFWIKHEGIERQVPFNAGTALHAPCGGAMQFRNNGHLEAVAHVVTMPPWPGSDGAKLTKGPWESV | not soluble
9 | HVYDEQIYRKSSEVLRMSSERIEDELKKIEDVSYEIITDEQIQRILSMQNRDDTYDQYQMKQELWDQLAGYASDEKYIDSIHVIDARGSEYSAGSSSSDLLQQEQEEVFKRAKAKSGRNLWMTLGGSDPVLISARQIRSYHQLSLNGLGMVLIQVNVKQMIRDVPKDWGDSVGDIMIADQGGNLVYTAHASAHVPEAAKETLKHPGYDLIKKNGKRYFISYLQSSYQNWSYYNVIPFDQMFAK | not soluble
10 | MKRKRIDIITLGCSKNLVDSEQLMRQLEEAGYSVTHDTENPEGEIAVINTCGFIGDAKEESINMILEFAERKEEGDLKKLFVMGCLSERYLQELAIEIPQVDKFYGKFNWKELLQDLGKTYHEELYIERTLTTPKHYAYLKISEGCDRKCSYCAIPIITGRHISKSMEEILDEVRYLVSQGVKEFQVIAQELTYYGVDLYKKQMLPELIERISEIPGVEWIRLHYAYPAHFPTDLFRVMRERDNVCKYMDIALQHISDNMLKLMRRQVSKEDTYKLIEQFRKEVPGIHLRTTLMVGHPGETEEDFEELKEFVRKARFDRMGAFAYSEEEGTYAAQQYEDSIPQEVKQARLDELMDIQQGISAELSAAKIGQQMKVIIDRIEGDYYIGRTEFDSPEVDPEVLISVSREELEVGQFYQVEVTDADDFDLYAKILNKYELEHHHHHH | soluble
11 | MIQQAQFNVQMAEEDRWLTQYPNMEMIVNNKGPKPIFPELNFNITGLEEKSRYVVLLSIQKFDNIRYGFKNGKWGPSKVRHATKKEQEIKYFLHPDGTKLGEELMKETIKFDTVRITNHKKFMDKDNVFFVETMHKYVPVLTVKNITNVESANHSMRMEVAQFFPVTVYNQESIGNWKSKFHKNATFENRLDGGNKRKNTNSREEPSSKRSKNETEIAVLDILQVASQSENYNESTNSGRLQNEISSSIHQFPSTSYQNQYPHAYPTVNTPPIYAQQFPAPFDEKQNQFYPKTDENLAPNCAQDASSLPNFAMNQKASFANQYPYHPYYHQYSQLDHGSPYQYMNNSINSDSSFQSSFSTENSYFDDNGNPIHYPYYPYK | not soluble
12 | MTIWLVTRHPGAIEWVARQGIQWDKHAAHLDPCEITAGDTVIGSLPINLAAEICNRGARYFNLSLNLPAHLRGRELDAATLTACEARLEEYIVKKVNS | not soluble
13 | MIGCLPMMRSLERHAVILGLLRQQEHVTIEAMAAACDASLQTIRRDLNQLGEDGRVVRYHGGARLADHARSATYEVRSASHVREKVAAGQLLARFIPDGATLFIAGGSTLALAAQELRACEGLTIVTNNLHAAVTLYDKTGFDVCVLGGTMRPASGSMIGEEAVRMIERYSLDFAVIGTCGISPDGALLEYDQSLVPPLLAMISNARRTVLVADGSKFGAKGIVRAAPLSAVNHFVTDRAPEGRAADLLARTGVKVHHPANPNLSSQDAAADGRELEHHHHHH | not soluble
14 | MRRRWYNNGGFQTLRMLEESSSEVTSSSALGLPPAMVMSPESLASPEYGGLELWGYDDGITYSMAQSLGTCTMEQQQPQPQQQPQQTQPLPSMPLPMPPTTPKSENESMSSGREELSPASSVNGCSTDGEARRQKKGPAPRQQEELCLVCGDRASGYHYNALTCEGCKGFFRRSVTKNAVYICKFGHACEMDMYMRRKCQECRLKKCLAVGMRPECVVPENQCAMKRKEKKAQREKDKLPVSTTTVDDHMPPIMQCDPPPPEAARIHEVVPRFLNEKLMEQNRLKNVPPLTANQKSLIARLVWYQEGYEQPSEEDLKRVTQTWQSDEDDEDSDMPFRQITEMTILTVQLIVEFAKGLPGFAKISQSDQITLLKACSSEVMMLRVARRYDAATDSVLFANNQAYTRDNYRKAGMAYVIEDLLHFCRCMYSMMMDNVHYALLTAIVIFSDRPGLEQPLLVEEIQRYYLNTLRVYILNQNSASPRCAVIFGKILGILTEIRTLGMQNSNMCISLKLKNRKLPPFLEEIWDVADVATTATPVAAEAPAPLAPAPPARPPATV | soluble
15 | MSNDVYIIGAGETKFGELWDKSLRDLAVEAGLEAIKDANIYSKDLQMLYASNSLAGTINEQSNIAALAADFSGIAENHVPAVRVEASTASGGAAVREAYLAIKSGEYDVVMVGGVEKMTDIYGTEIIDVQSSILDREWESFNGATPAAMAAIAARRYMHDFNVEREAISMVAVNDHANASLNPDAQYRNKITVDQVLNSDPVAEPLNVFDCSPITDGASAIILASEGFVKKNRIDGVRIL | not soluble
16 | MGSDKIHHHHHHMRRLRKALAAGSFLFRGTFVQSDPIPARARRPIMMLEHIQARTHHARRGALRNSFTYGVDYVLTDLGPAGPLLISRNRFNLWSLWDHRHGGARDNGHGVHWFRSLLQERGLATENAQLLLLTQPSFLWFHFNPVSFWIALVDGTPRAFVAEVNSTFGQRHCYFCARDGFAPIRKSDTLIAEKLMHVSPFQRIAGHYAFNFGMTDTQIDIRISFENGDHGVLATLSGERRPATSASLAWAAIRRPLGAARVLALIHWQAAILYLKRAPFLKKQHPPEHLVSDGYDLRGTKE | not soluble
17 | MGSDKIHHHHHHMKTKMPEMLSFISEEAVSRKMTSEEIAAHFGYDKHHFSRKFKEINGFSVVEFLSSLKVEKAIIELNEEKRILDLQEHSGFESSGSFTNTFKKYTGSSPRKYKTEMNDIFYDMKRFENDNKDKSIAHFQEKNDSFCTVTIDVPDEFEKGIIFIGLFRTLIPNHMPISGLATKNLIGNQLKNIPSGDYYLLACAISQSNNILSYFNLSNSLRGKEDEKLSFPKCSGKHYAIKLREPIPEDPPILANVGKILISCLKNTI | not soluble
18 | MKPEDFRASATRPFTGEEYLASLRDDREIYIYGDRVKDVTSHPAFRNAAASMARLYDALHDPQSKEKLCWETDTGNGGYTHKFFRYARSADELRQQRDAIAEWSRLTYGWMGRTPDYKAAFGSALGANPGFYGRFEDNAKTWYKRIQEACLYLNHAIVNPPIDRDKPVDQVKDVFISVDEEVDGGIVVSGAKVVATNSALTHYNFVGQGSAQLLGDNTDFALMFIAPMNTPGMKLICRPSYELVAGIAGSPFDYPLSSRFDENDAILVMDKVFIPWENVLIYRDFERCKQWFPQGGFGRLFPMQGCTRLAVKLDFITGALYKALQCTGSLEFRGVQAQVGEVVAWRNLFWSLTDAMYGNASEWHGGAFLPSAEALQAYRVLAPQAYPEIKKTIEQVVASGLIYLPSGVRDLHNPQLDKYLSTYCRGSGGMGHRERIKILKLLWDAIGSEFGGRHELYEINYAGSQDEIRMQALRQAIGSGAMKGMLGMVEQCMGDYDENGWTVPHLHNPDDINVLDRIRQ | not soluble
